According to IntAct's records for PubMed 31515488:

B1: Notch homolog 2 N-terminal-like protein A (Homo sapiens), Q7Z3S9 (parent)
chain: MCVTYHNGTGYCKCPEGFLGEYCQHRDPCEKNRCQNGGTCVAQAMLGKATCRCASGFTGEDCQYSTSHPCFVSRPCLNGGTCHMLSRDTYECTCQVGFTGKECQWTDACLSHPCANGSTCTTVANQFSCKCLTGFTGQKCETDVNECDIPGHCQHGGTCLNLPGSYQCQCLQGFTGQYCDSLYVPCAPSPCVNGGTCRQTGDFTFECNCLPETVRRGTELWERDREVWNGKEHDEN

Variants of: B1
Settings: with pde9a_human PDE9A

| Variant | effect of a mutation on the interaction |
| --- | --- |
| R74Q | with no effect |
| A115T | with no effect |

Variants of: B1
Settings: with ppbi_human ALPI

| Variant | effect of a mutation on the interaction |
| --- | --- |
| R74Q | with no effect |
| A115T | with no effect |

Variants of: B1
Settings: with snai1_human SNAI1, O95863
Sequence of snai1_human SNAI1, O95863 (O95863 whole entry): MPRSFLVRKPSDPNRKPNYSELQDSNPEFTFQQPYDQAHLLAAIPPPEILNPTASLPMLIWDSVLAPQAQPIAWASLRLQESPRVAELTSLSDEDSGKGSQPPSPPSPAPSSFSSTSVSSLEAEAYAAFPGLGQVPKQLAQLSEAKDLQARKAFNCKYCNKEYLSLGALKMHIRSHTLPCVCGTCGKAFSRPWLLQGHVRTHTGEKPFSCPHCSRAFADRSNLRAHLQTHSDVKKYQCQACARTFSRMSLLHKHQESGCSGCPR

| Variant | effect of a mutation on the interaction |
| --- | --- |
| R74Q | with no effect |
| A115T | with no effect |

Variants of: B1
Settings: with anfb_human NPPB

| Variant | effect of a mutation on the interaction |
| --- | --- |
| R74Q | with no effect |
| A115T | with no effect |

Variants of: B1
Settings: with adck5_human ADCK5, Q3MIX3
Sequence of adck5_human ADCK5, Q3MIX3 (Q3MIX3 whole entry): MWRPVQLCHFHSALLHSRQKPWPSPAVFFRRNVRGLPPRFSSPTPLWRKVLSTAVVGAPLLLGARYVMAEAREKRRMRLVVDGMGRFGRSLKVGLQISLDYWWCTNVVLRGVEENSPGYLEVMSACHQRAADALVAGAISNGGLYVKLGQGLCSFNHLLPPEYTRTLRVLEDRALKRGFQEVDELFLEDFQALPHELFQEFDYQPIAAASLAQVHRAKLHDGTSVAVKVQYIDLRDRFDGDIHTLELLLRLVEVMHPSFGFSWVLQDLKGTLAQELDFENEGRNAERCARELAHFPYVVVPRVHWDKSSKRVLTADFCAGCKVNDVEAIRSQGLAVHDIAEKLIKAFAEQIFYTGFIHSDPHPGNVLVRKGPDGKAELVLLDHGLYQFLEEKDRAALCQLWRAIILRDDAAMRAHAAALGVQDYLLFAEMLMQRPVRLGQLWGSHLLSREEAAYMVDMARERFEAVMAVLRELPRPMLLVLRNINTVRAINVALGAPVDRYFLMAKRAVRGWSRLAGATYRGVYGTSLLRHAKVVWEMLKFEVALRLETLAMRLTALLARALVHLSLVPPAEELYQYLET

| Variant | effect of a mutation on the interaction |
| --- | --- |
| R74Q | with no effect |
| A115T | with no effect |

Variants of: B1
Settings: with catz_human CTSZ

| Variant | effect of a mutation on the interaction |
| --- | --- |
| R74Q | with no effect |
| A115T | with no effect |

Variants of: B1
Settings: with txnd5_human TXNDC5, Q8NBS9
Sequence of txnd5_human TXNDC5, Q8NBS9 (Q8NBS9 whole entry): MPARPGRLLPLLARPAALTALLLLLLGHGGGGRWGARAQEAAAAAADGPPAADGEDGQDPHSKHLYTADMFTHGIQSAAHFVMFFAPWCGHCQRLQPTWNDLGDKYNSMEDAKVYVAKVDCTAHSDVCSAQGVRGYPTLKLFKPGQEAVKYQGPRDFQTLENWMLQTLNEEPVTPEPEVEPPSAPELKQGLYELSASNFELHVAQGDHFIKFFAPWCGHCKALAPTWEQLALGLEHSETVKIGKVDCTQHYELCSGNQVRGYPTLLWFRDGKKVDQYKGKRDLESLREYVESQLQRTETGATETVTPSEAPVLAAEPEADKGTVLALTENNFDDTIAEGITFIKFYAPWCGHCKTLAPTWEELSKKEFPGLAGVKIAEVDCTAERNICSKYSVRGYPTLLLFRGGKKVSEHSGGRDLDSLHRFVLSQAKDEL

| Variant | effect of a mutation on the interaction |
| --- | --- |
| R74Q | with no effect |
| A115T | with no effect |

Variants of: B1
Settings: with trpv6_human TRPV6, Q9H1D0
Sequence of trpv6_human TRPV6, Q9H1D0 (Q9H1D0 whole entry): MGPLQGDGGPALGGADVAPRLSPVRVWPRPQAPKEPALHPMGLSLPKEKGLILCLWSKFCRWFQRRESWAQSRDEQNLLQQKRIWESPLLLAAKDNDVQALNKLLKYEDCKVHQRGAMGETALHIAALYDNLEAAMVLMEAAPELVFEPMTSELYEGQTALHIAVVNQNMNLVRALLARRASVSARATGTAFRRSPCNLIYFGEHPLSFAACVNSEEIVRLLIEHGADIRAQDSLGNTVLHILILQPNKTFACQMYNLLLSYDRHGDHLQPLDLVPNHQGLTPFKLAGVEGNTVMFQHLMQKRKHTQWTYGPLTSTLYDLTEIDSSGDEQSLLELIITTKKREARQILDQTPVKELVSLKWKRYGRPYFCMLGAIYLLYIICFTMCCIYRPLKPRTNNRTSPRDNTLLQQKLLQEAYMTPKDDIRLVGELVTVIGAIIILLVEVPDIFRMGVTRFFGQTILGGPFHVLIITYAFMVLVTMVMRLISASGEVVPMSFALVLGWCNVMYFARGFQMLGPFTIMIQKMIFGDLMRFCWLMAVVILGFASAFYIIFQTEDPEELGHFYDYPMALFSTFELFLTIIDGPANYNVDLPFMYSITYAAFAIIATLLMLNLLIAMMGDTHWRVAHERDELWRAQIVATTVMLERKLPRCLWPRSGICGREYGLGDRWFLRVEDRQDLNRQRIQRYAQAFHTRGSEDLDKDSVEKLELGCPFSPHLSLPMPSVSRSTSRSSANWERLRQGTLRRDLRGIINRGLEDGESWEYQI

| Variant | effect of a mutation on the interaction |
| --- | --- |
| R74Q | with no effect |
| A115T | with no effect |

Variants of: B1
Settings: with ptn23_human PTPN23, Q9H3S7
Sequence of ptn23_human PTPN23, Q9H3S7 (Q9H3S7 whole entry): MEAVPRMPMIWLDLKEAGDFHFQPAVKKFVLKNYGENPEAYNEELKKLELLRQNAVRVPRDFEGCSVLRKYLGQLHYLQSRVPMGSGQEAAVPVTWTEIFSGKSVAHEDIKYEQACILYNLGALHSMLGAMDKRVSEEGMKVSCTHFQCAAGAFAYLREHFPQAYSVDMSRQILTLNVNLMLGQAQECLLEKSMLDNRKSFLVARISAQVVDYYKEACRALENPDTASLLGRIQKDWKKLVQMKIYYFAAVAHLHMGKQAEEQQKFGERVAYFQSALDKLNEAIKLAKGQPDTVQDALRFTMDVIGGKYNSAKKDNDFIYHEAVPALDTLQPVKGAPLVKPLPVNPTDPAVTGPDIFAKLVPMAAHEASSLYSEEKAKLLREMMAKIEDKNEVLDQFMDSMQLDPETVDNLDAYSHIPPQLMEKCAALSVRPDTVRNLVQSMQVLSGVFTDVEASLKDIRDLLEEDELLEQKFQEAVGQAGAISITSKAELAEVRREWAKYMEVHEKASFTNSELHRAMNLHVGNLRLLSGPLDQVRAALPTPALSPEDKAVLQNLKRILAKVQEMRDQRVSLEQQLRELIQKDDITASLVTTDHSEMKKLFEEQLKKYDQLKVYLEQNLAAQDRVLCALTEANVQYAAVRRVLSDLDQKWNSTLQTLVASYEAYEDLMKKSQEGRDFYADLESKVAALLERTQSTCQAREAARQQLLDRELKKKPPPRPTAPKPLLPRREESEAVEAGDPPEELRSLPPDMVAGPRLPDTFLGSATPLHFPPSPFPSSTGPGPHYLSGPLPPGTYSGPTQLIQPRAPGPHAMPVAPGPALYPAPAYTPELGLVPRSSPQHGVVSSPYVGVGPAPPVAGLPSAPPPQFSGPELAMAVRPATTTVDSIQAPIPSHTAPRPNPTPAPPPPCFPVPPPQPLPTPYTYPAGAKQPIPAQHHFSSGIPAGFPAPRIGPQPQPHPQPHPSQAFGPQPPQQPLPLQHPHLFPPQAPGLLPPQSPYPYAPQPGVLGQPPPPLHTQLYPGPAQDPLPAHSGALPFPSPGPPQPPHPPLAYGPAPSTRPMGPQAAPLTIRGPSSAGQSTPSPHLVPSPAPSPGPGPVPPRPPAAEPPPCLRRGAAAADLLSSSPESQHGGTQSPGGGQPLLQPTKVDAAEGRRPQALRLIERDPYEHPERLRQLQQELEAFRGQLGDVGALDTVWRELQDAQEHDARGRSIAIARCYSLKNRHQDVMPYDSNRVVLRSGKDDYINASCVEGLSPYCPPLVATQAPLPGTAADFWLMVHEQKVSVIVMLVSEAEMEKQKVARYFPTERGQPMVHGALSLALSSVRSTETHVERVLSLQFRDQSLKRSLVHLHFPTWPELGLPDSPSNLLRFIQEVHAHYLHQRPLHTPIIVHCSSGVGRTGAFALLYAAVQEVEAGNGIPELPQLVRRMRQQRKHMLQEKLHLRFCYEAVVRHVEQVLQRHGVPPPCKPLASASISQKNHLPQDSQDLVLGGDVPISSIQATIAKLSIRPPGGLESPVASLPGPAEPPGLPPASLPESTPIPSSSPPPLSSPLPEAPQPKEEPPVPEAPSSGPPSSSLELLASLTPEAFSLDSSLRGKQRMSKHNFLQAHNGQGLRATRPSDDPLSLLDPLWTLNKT

| Variant | effect of a mutation on the interaction |
| --- | --- |
| R74Q | with no effect |
| A115T | with no effect |

Variants of: B1
Settings: with gata2_human GATA2, P23769

| Variant | effect of a mutation on the interaction |
| --- | --- |
| R74Q | with no effect |
| A115T | with no effect |

Variants of: B1
Settings: with hbaz_human HBZ

| Variant | effect of a mutation on the interaction |
| --- | --- |
| R74Q | with no effect |
| A115T | with no effect |

Variants of: B1
Settings: with nect3_human NECTIN3, Q9NQS3
Sequence of nect3_human NECTIN3, Q9NQS3 (Q9NQS3 whole entry, looked up): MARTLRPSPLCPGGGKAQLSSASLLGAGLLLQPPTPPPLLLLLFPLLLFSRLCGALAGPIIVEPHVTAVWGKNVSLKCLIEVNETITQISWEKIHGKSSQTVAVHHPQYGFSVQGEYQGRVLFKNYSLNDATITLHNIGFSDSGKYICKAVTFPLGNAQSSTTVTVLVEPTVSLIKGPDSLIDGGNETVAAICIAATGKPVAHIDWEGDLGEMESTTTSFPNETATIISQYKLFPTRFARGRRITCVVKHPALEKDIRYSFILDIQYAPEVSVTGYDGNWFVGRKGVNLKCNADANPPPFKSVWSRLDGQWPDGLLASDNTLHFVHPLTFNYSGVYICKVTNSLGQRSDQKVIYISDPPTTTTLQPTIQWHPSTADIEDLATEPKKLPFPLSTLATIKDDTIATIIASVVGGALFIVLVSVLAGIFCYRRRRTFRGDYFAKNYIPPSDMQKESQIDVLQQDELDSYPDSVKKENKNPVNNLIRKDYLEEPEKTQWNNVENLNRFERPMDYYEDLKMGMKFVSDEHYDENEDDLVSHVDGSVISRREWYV

| Variant | effect of a mutation on the interaction |
| --- | --- |
| R74Q | with no effect |
| A115T | with no effect |

Variants of: B1
Settings: with cd5r1_human CDK5R1, Q15078
Sequence of cd5r1_human CDK5R1, Q15078 (Q15078 whole entry): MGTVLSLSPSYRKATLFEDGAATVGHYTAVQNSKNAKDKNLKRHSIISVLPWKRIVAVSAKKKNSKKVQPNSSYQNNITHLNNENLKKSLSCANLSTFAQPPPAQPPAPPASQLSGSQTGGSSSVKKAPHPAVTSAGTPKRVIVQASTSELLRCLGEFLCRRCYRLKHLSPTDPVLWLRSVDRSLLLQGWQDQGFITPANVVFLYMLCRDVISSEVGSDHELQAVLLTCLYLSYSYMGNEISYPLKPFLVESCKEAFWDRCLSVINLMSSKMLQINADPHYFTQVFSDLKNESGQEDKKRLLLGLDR

| Variant | effect of a mutation on the interaction |
| --- | --- |
| R74Q | with no effect |
| A115T | with no effect |

Variants of: B1
Settings: with uxt_human UXT

| Variant | effect of a mutation on the interaction |
| --- | --- |
| R74Q | with no effect |
| A115T | with no effect |

Variants of: B1
Settings: with yipf3_human YIPF3, Q9GZM5
Sequence of yipf3_human YIPF3, Q9GZM5 (Q9GZM5 whole entry): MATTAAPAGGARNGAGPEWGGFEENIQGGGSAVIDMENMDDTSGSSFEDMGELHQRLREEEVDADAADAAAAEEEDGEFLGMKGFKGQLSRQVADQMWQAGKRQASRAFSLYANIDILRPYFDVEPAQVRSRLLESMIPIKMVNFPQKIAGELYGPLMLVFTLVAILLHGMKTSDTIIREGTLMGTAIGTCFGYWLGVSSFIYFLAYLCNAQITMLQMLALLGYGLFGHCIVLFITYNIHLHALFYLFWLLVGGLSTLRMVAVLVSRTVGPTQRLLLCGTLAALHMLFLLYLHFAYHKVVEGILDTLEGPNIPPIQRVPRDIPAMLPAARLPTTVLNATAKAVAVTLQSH

| Variant | effect of a mutation on the interaction |
| --- | --- |
| R74Q | with no effect |
| A115T | with no effect |

Variants of: B1
Settings: with thms2_human THEMIS2, Q5TEJ8

| Variant | effect of a mutation on the interaction |
| --- | --- |
| R74Q | with no effect |
| A115T | with no effect |

Variants of: B1
Settings: with bmp7_human BMP7, P18075

| Variant | effect of a mutation on the interaction |
| --- | --- |
| R74Q | with no effect |
| A115T | with no effect |

Variants of: B1
Settings: with cxcl5_human CXCL5, P42830
Sequence of cxcl5_human CXCL5, P42830 (P42830 whole entry): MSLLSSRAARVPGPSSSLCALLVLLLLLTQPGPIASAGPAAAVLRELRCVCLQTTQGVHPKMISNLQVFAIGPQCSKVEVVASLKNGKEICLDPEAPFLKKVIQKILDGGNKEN

| Variant | effect of a mutation on the interaction |
| --- | --- |
| R74Q | with no effect |
| A115T | with no effect |

Variants of: B1
Settings: with itb2_human ITGB2, P05107

| Variant | effect of a mutation on the interaction |
| --- | --- |
| A115T | with no effect |
